The results in this text go back to paper PMC9679424, “The CARD8 T60 variant associates with NLRP1 and negatively regulates its activation” (Frontiers in Immunology, 2022).

In this test the target is T1, NLRP1-FLAG (human, UniProt Q9C000-1 1-1473).
T1 construct: NLRP1, human, UniProt Q9C000-1, full length; The host of the purified protein is told only as a mammalian expression system; also called full-length NLRP1; Flag-tagged NLRP1; source: HEK 293T, transiently transfected, in lysate; also purified using mammalian protein expression system
T1 sequence (looked up): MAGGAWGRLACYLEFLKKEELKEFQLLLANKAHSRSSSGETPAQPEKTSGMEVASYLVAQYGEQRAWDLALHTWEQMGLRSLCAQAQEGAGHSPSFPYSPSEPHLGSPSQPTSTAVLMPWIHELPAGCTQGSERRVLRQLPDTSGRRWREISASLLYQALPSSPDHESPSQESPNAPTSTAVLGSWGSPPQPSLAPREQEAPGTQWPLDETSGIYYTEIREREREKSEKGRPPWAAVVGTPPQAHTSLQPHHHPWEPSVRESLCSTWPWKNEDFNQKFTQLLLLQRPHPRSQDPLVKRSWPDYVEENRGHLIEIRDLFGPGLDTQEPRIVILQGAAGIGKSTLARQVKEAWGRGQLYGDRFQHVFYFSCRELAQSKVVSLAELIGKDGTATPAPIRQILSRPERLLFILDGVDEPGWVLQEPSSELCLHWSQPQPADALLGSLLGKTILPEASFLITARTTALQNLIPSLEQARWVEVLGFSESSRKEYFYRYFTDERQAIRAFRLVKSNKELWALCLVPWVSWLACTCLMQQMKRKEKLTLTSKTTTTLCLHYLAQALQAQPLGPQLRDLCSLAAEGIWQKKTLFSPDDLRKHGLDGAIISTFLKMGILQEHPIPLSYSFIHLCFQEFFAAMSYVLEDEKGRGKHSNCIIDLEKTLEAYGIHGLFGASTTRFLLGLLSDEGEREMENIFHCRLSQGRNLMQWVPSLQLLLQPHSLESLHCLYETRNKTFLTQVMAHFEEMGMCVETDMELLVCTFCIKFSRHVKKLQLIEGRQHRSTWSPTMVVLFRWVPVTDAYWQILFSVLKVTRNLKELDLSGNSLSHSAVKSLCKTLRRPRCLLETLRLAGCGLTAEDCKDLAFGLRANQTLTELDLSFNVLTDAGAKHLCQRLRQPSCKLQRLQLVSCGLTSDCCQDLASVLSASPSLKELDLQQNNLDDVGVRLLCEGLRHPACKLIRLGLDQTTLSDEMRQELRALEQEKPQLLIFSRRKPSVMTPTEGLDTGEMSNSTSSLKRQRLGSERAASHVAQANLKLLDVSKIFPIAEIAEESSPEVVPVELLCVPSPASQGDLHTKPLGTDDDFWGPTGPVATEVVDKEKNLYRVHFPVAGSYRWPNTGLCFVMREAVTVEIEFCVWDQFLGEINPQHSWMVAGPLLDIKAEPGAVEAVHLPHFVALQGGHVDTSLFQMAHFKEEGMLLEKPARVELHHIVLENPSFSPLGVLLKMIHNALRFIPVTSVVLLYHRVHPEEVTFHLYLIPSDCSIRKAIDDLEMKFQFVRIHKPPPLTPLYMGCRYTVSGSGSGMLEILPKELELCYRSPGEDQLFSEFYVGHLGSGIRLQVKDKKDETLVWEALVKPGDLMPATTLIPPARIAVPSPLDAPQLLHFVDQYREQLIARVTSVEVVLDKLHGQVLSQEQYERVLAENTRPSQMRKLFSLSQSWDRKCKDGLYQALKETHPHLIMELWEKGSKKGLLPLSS
Kind of test: co-IP; HEK 293T cells transiently co-transfected, 28 hours; lysate (20 mM Tris-HCl pH 7.5, 100 mM KCl, 5 mM MgCl2, 0.3% NP-40); precipitation by the Strep tag of CARD8-T60-Strep (anti-Strep; Strep-Tactin gel) overnight at 4 °C; immunoblotting. The following applies: partners not purified. In general terms: A western blot detects proteins with antibodies after separation by electrophoresis.

B1: CARD8-T60-Strep (natural protein, human, UniProt Q9Y2G2-5 1-537, looked up)
chain: MEKKECPEKSSSSEEELPRRDSGSSRNIDASKLIRLQGSRKLLVDNSIRELQYTKTGIFFQAEACVTNDTVYRELPCVSETLCDISHFFQEDDETEAEPLLFRAVPECQLSGGDIPSVSEEQESSEGQDSGDICSEENQIVSSYASKVCFEIEEDYKNRQFLGPEGNVDVELIDKSTNRYSVWFPTAGWYLWSATGLGFLVRDEVTVTIAFGSWSQHLALDLQHHEQWLVGGPLFDVTAEPEEAVAEIHLPHFISLQAGEVDVSWFLVAHFKNEGMVLEHPARVEPFYAVLESPSFSLMGILLRIASGTRLSIPITSNTLIYYHPHPEDIKFHLYLVPSDALLTKAIDDEEDRFHGVRLQTSPPMEPLNFGSSYIVSNSANLKVMPKELKLSYRSPGEIQHFSKFYAGQMKEPIQLEITEKRHGTLVWDTEVKPVDLQLVAASAPPPFSGAAFVKENHRQLQARMGDLKGVLDDLQDNEVLTENEKELVEQEKTRQSKNEALLSMVEKKGDLALDVLFRSISERDPYLVSYLRQQNL
notes: CARD8, T60 isoform, human, UniProt Q9Y2G2-5, full length; The host of the purified protein is told only as a mammalian expression system; also called CARD8-Strep; T60 isoform of CARD8; source: HEK 293T, transiently transfected, in lysate; also purified using mammalian protein expression system
For B1, the binding result was “binds”.
